Literature values as cited in article PMC11941745.

Tests used:
[1] = target: flotillin-1 (Homo sapiens) (UniProt O75955); test: SPR
[2] = target: flotillin-2 (Homo sapiens) (UniProt Q14254); test: SPR
Sequence of UniProt Q14254 (Q14254 2-428): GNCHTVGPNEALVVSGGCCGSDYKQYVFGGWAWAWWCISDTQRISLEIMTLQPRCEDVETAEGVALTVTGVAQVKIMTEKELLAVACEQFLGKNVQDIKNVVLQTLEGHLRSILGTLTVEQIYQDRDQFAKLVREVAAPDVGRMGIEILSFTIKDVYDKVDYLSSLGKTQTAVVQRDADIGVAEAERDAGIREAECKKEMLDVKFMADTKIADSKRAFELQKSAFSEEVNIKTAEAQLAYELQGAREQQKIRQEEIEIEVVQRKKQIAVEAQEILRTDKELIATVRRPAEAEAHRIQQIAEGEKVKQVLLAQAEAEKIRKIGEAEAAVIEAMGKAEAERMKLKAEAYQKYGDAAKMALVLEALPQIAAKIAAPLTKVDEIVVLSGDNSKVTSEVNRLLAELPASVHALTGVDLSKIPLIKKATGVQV

Sequence of UniProt O75955 (O75955 whole entry): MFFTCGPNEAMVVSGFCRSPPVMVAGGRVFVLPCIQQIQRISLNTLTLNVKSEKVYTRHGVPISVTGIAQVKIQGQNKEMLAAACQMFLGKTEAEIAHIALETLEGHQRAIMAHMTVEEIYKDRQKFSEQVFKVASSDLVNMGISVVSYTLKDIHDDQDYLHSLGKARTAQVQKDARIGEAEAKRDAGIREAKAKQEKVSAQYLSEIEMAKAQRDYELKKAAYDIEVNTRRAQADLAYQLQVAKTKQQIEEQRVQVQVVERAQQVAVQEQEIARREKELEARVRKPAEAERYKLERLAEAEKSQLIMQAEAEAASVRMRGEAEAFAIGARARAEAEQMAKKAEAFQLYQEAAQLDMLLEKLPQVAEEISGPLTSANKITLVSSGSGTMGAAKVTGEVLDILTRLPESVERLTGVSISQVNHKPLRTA

Kd [1]: 0.0181 µM
Kd [2]: 0.0248 µM
Substance: MPP1 (from UniProt Q00013)
